One block for each molecule: values may come before it.
Experiments:
Type in all cases: binding
cs201B = assay: FRET titration and kinetics, labeled extended hinge vs peptide cs201B
Procedure: (§1) AlexaFluor™ 555 C2 maleimide (donor) and AlexaFluor™ 647 C2 maleimide (acceptor) were purchased from ThermoFisherScientific. Stock solutions at −5 mM were prepared by dissolving 1 mg of each dye in 200 μl DMSO. Hinge variants containing two cysteines were expressed and purified as described above with the modification that 0.5 mM TCEP was used during lysis, IMAC and SEC, and that the buffer for initial SEC contained 20 mM sodium phosphate (PH 7.0) instead of Tris-HCl. After SEC, 500 μl hinge at a concentration of 50 μM was incubated with 500 μM of a single dye for controls or 250 μM each of two dyes. After 2 h incubation at room temperature, samples were purified by SEC using a buffer containing 20 mM Tris-HCl and 100 mM NaCl at pH 8.
(§2) The buffer for all FRET measurements was 20 mM Tris-HCl, 100 mM NaCl, 0.05% v/v TWEEN®20 at pH 8. Fluorescence spectra were recorded at room temperature using a FluoroMax™ spectrometer in a 1 cm×1 cm cuvette at a sample volume of 3 ml. FRET titrations and kinetics measurements were performed at 25° C. in 96-well plates (Corning 3686) using a Synergy Neo2™ plate reader. Excitation wavelength was 520 nm and emission wavelength was 665 nm (except for donor-donor controls for which emission wavelength was 555 nm, see FIG. 13B right column).
(§3) Titrations were carried out in 96-well format, with 4 replicates per plate and 24 data points per titration (23 steps of two-fold serial dilution of effector (peptide or 3hb) in the presence of double-labeled hinge at a constant concentration of 2 nM) with a final sample volume of 80 μl per well. […] The raw fluorescence signal (donor emission upon acceptor excitation) was fitted to the equation
(§4) Fitting was performed using the scipy.optimize.curve_fit python function (53). Uncertainties for KD values are standard deviation errors calculated from the covariance matrix of the fits. […]
(§5) For FRET kinetics experiments a 2× hinge solution and 8 different 2× effector solutions at different concentrations were prepared separately. […] Fluorescence signals S at each concentration were fitted individually to the equation […]

off-target peptides = assay: Pairwise FRET titrations of labeled hinges with off-target peptides; conditions: 2 nM labeled hinge; off-target peptides at μM concentrations; flat lines
Procedure: A critical feature of two-state switches in biology and technology is the coupling between the state control mechanism and the populations of the two states. To quantitatively investigate the thermodynamics and kinetics of the effector induced switching between the two states of our designed hinges, we used Forster resonance energy transfer (FRET). […]
as §2, with “Excitation wavelength was 520 nm and emission wavelength was 665 nm (except for donor-donor controls for which emission wavelength was 555 nm, see FIG. 13B right column).” left out
as §3

3hb21 = assay: FRET titration and kinetics, labeled extended hinge vs 3hb21
Procedure: as §1, §2, §3, §4, §5

cs221B = assay: FRET titration and kinetics, labeled extended hinge vs peptide cs221B; conditions: Effector cs221B; method FRET
Procedure: as §1, with “After 2 h incubation at room temperature, samples were purified by SEC using a buffer containing 20 mM Tris-HCl and 100 mM NaCl at pH 8.” left out
as §2, with “Excitation wavelength was 520 nm and emission wavelength was 665 nm (except for donor-donor controls for which emission wavelength was 555 nm, see FIG. 13B right column).” left out
as §3, with “equation […]” for “equation”

3hb21, sequence (as listed by the source): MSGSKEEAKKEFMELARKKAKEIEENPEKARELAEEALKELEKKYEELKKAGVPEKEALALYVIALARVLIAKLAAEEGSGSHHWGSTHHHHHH
cs201B, sequence (as listed by the source): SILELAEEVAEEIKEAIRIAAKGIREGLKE
cs221B, sequence (as listed by the source): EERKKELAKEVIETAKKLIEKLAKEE

B1: cs201F: extended hinge cs201 for FRET labeling, SEQ ID NO:30 (protein)
chain: MSGDEEVQEAVERAEELREEAEELIKKARKTGDPELLRKALEALEEAVRAVEEAICRNPDNDEAVETAVRLARELKKVAEELQERAKKTGDPELLKLALRALEVAVRAVELAIKSNPDNDEAVETAVRLARELKKVAEELQERAKKTGDPELLKLALRALEVAVRAVELAIKRNPDNEEAIKTALRLARELRKVAKELIERARKTGDAELLKKALEAARVAVEAVRLAAEYNKENAEKMAELLVELAELAREVADVLIELAEKTGDPELLKKALEVLEEAVEAVRLAIEYDPDHDEAVETAVRLARELKKVAEELQERAKKTGDPELLKLALRALEVAVRAVELAIKSNPDNEEAVETAKRLAEELRKVAELLEERAKETGDPCLQELAKRAKEVADRARELAKKSNPNNGSGSHHWGSTHHHHHH
reversibility of hinge conformational change (cs201B; 30 nM FRET-labeled hinge, peptide added, then excess unlabeled hinge cs201): fully reversible
kon (cs201B; Effector cs201B, method FRET): 4500 M⁻¹ s⁻¹
off-target FRET titration outcome (off-target peptides): no conformational change

binding compared with the original peptide cs221B (3hb21; FRET): significantly tighter
KD, times stronger than the KD of the original peptide cs221B (3hb21; FRET titration, 2 nM hinge): at least 20 times
B2: cs221F: extended hinge cs221 for FRET labeling, SEQ ID NO:31 (protein)
chain: MSGEMVEEIEKLAEELAKKTKDCEVKKLAKKAAELAKKSTDEMKKEIVKDALELALRTKDEEVIRLALKAAVLAAESDDEEVKEVVKKALEAALKSKDEEVIRLLLLAAVLAAAAARSGSPEEKLEIAKKALELAMKSKDEEVIRLALLAAVLAARSDDEEVLKIVKKALELAMESKDVEVIRLALEAAVLAARSTDPEKKKCVYEALEKAMESKDEEEIKKELKAAVEKARSTEGSGSHHWGSTHHHHHH
off-target FRET titration outcome (off-target peptides): no conformational change
kon (3hb21; Effector 3hb21, method FRET, 5 nM hinge): 13000 M⁻¹ s⁻¹
kon (cs221B): 2600 M⁻¹ s⁻¹
